The target of data set [1] is T1, SoSL (Ac-651) (Streptomyces ochraceiscleroticus, UniProt A0ABW1MU60).
T1 construct: gene ACFP4F_27515
T1 sequence (A0ABW1MU60 37-329): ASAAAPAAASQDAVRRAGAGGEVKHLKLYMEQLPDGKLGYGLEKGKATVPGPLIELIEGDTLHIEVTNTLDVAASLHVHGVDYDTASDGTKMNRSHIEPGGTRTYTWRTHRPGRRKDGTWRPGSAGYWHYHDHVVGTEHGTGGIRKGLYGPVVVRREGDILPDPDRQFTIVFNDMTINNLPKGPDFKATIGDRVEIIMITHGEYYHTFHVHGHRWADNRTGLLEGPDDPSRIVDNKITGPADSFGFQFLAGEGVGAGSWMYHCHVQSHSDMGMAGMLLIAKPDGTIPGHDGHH
The following applies: pH 3.7; inhibitor.

Substrate in data set [2]: CCn1c(=NN=c2sc3cc(S(=O)(=O)O)ccc3n2CC)sc2cc(S(=O)(=O)O)ccc21
The data set is described as follows: purified protein. The following applies: pH 3.5, 30 °C, 50 mM Britton–Robinson buffer, free enzyme (b72 lists the two pH values in reversed order). The class given is biochemical, Streptomyces ochraceiscleroticus.

Substrate in data set [3]: COc1cccc(OC)c1O
The data set is described as follows: purified protein. The class given is biochemical, Streptomyces ochraceiscleroticus. The following applies: pH 9.0, 30 °C, 50 mM Britton–Robinson buffer, free enzyme (b72 lists the two pH values in reversed order).

For the molecule `F` [sodium fluoride], the “10 mM” value in data set [1] was 67.8 ± 0.6%.

B1: SoSL (Ac-651) (Streptomyces ochraceiscleroticus) (protein)
chain: ASAAAPAAASQDAVRRAGAGGEVKHLKLYMEQLPDGKLGYGLEKGKATVPGPLIELIEGDTLHIEVTNTLDVAASLHVHGVDYDTASDGTKMNRSHIEPGGTRTYTWRTHRPGRRKDGTWRPGSAGYWHYHDHVVGTEHGTGGIRKGLYGPVVVRREGDILPDPDRQFTIVFNDMTINNLPKGPDFKATIGDRVEIIMITHGEYYHTFHVHGHRWADNRTGLLEGPDDPSRIVDNKITGPADSFGFQFLAGEGVGAGSWMYHCHVQSHSDMGMAGMLLIAKPDGTIPGHDGHH
notes: TAT signal peptide removed (lacks 36 N-terminal residues of 329), pQE-30 His-tag, E. coli M15 [pREP4], Ni-sepharose; 33 kDa computed, ~35 kDa SDS-PAGE; trimeric
What is called Km is the concentration of substrate that gives half-maximal velocity. Usually kcat stands for the maximal rate divided by the concentration of active sites. As to B1, the Km in data set [2] stood at 50 µM; in data set [3], 760 µM. Besides, the kcat in data set [2] was found to be 106 s⁻¹; in data set [3] it was 0.11 s⁻¹.
